Measurements reported in patent publication US11202837B2, “Biological materials and uses thereof” (Antikor Biopharma Limited, priority 2014, dated 2021).
Read-outs that look alike come from different tables or passages of the source. Where a SMILES comes first, the peptide text is derived from it. [ ]: non-standard residue; d: D form. Dolaproine = CO[C@@H]([C@@H]1CCCN1)[C@@H](C)C(=O)O; Dil = CC[C@H](C)[C@H](NC)[C@@H](CC(=O)O)OC; NMeV = CN[C@H](C(=O)O)C(C)C

Legend:
[1] = system: BT474 human breast carcinoma xenografts; assay: Tumour growth inhibition or eradication in BT474 xenograft model; type: in vivo; conditions: free payload treated group
Method: Mice. […] The animals were fed ad libitum water (reverse osmosis, 1 ppm Cl), and NIH 31 Modified and Irradiated Lab Diet® consisting of 18.0% crude protein, 5.0% crude fat, and 5.0% crude fiber. The mice were housed on irradiated Enrich-o'cobs™ Laboratory Animal Bedding in static microisolators on a 12-hour light cycle at 20-22° C. (68-72° F.) and 40-60% humidity. Charles River Discovery Services North Carolina (CR Discovery Services, who carried out this contracted R&D) specifically complies with the recommendations of the Guide for Care and Use of Laboratory Animals with respect to restraint, husbandry, surgical procedures, feed and fluid regulation, and veterinary care.
Tumor weight may be estimated with the assumption that 1 mg is equivalent to 1 mm^3 of tumor volume.

BT474 cells = assay: Cell killing assay (MTS), BT474 cells; type: cell-based, human; conditions: BT474 Cells (HER2++), 96 hours, Table 49; for IC50: read-out: IC50
Method: (§1) The cells were recovered by centrifugation (2 min, 2000 rpm), the supernatant was discarded, and the cells were resuspended in complete McCoy's 5A (5 ml). The cells were then counted using a haemocytometer and diluted accordingly. They were plated at 5000 cells/well (200 μl) using attachment factor and incubated overnight at 37° C., 5% CO2 in a humidified atmosphere. U87 is a non-HER2 expressing glioblastoma cell line [Zitron I M et al (2013) BMC Cancer 13:83] and was grown in a similar way, plated at 1000 cells/well (using DMEM media). BT474 is a HER2 expressing breast cancer cell line [Brockhoff G et al (2007) Cell Prolif 40:488-507] and was grown in a similar way, plated at 7500 cells/well (using RPMI media). NCI-N87 is a HER2 expressing gastric cancer cell line [Yamashita-Kashima Y et al (2013) Oncol. Rep 30:1087-93] and was grown in a similar way, plated at 7500 cells/well (using RPMI media).
(§2) The cells were exposed to the various ADCs diluted in complete media for 96 hours at 37° C., 5% CO2 in a humidified atmosphere. Cell viability was measured using the Promega Aqueous Cell-titre-96™ aqueous one solution cell proliferation kit (MTS reagent) according to manufacturer's instructions. Briefly, the media was removed and 100 μl of complete phenol red free media, pre-combined with MTS reagent, was added to the cells (20 μl of reagent per 100 μl of media). The plates were read on an ELISA plate reader at 490 nm after a 2 hr incubation in the dark (5% CO2, 37° C.).
(§3) The data (absorption units) were converted to % cell survival by using the untreated controls as the 100% cell survival and the Triton X-100 controls as the 100% cell death. The average absorption value for the latter was subtracted from all the rest of the data in order to get a suitable baseline. The averages were converted to survival and standard error values were obtained for each n value (as a % cell survival). […] Experiments were repeated at least 3 times for each compound tested and a set or an average of the data was plotted and fitted to obtain a dose-response curve.

NCI-N87 cells = assay: Cell killing assay (MTS), NCI-N87 cells; type: cell-based, human; conditions: 96 hours
Method: as §1, §2, §3

SKBr3 cells = assay: Cell killing assay (MTS), SKBr3 cells; type: cell-based, human; conditions: SKBr3 Cells (HER2+++), 96 hours; for IC50: read-out: IC50
Method: (§4) SKBr3, human breast cancer cell line, high HER2 expression levels, up to 1,000,000 receptors per cell [Lazar G A, et al Proc Natl Acad Sci USA. […] When confluency was 70-80%, cells were washed with PBS (2×10 ml) and incubated with trypsin for 5-7 min. Complete media was added and the cells were resuspended by pipetting. The cells were recovered by centrifugation (2 min, 2000 rpm), the supernatant was discarded, and the cells were resuspended in complete DMEM (5 ml). The cells were then counted using a haemocytometer and diluted accordingly. They were plated at 4500 cells/well (200 μl) using attachment factor and incubated overnight at 37° C., 5% CO2 in a humidified atmosphere. U87 is a non-HER2 expressing glioblastoma cell line and was grown in a similar way, plated at 1000 cells/well.
as §2, with “The cells were exposed to the various ADCs diluted in complete media for 96 hours at 37° C., 5% CO2 in a humidified atmosphere.” left out, “kit” for “kit (MTS reagent)”
as §3, with “dose response” for “dose-response”
as §1
as §2, with “The cells were exposed to the various ADCs diluted in complete media for 96 hours at 37° C., 5% CO2 in a humidified atmosphere.” left out
(§5) The data (absorption units) were converted to % cell survival by using the untreated controls as the 100% cell survival and the Triton X-100 controls as the 100% cell death. The average absorption value for the latter was subtracted from all the rest of the data in order to get a suitable baseline. The averages were converted to survival and standard error values were obtained for each n value (as a % cell survival).

U87 cells = assay: Cell killing assay (MTS), U87 cells; type: cell-based; conditions: U87 Cells (HER2−), 96 hours, Table 51
Method: as §4
as §2, with “kit” for “kit (MTS reagent)”
as §3, with “dose response” for “dose-response”
as §1, §2, §5

[2] = Aggregation by HPLC size-exclusion chromatography; type: physicochemical; conditions: purified or analysed conjugate vs unconjugated antibody
Method: Aggregation can be tested by analytical size-exclusion HPLC measuring the percentage of high molecular weight material compared to the conjugate eluting at a retention time characteristic of a monomeric conjugate.
Typically, 20 μg of protein was injected for analytical runs and 300 μg for semi-preparative runs.

HER2 = HER2 (Homo sapiens, UniProt P04626); assay: Biacore SPR binding to immobilised HER2; conditions: compared to unmodified scFv
Method: The binding affinity against immobilised HER2 target antigen was determined by Biacore SPR compared to the unmodified scFv on a Biacore T200. A standard amine-coupling method was used to prepare all Biacore surfaces (CM5 or CM3), as follows. Flow cells were activated individually by injecting a freshly mixed solution of 0.2M EDC in 0.05 M NHS at 30 μl/min. […] Excess NHS ester was deactivated using a 1 M ethanolamine solution. To measure the kinetics of the antibody and conjugate on the HER2 chip, a […] serial dilution (typically at 5, 2.5, 1.25, 0.6 μg/ml or lower for free antibody and 20, 10, 5, 2.5 μg/ml for the conjugates), was injected for 160 s at 30 μl/min, allowing a 900-s dissociation phase. The dissociation time was extended to 3600 s for the highest concentration. Surfaces were regenerated with 45 s injection of MgCl2 8M.
To evaluate binding ability, manual runs were performed at 30 μl/min with a 60 s injection of the desired compound followed by 60 s waiting time and a 45 s of regeneration at 10 μl/min using MgCl2 8M. All data was analysed using the software, BIAEvaluation.

[3] = Concentration reached and storage stability of purified conjugates in buffer; type: physicochemical
[4] = NCI-N874 Cells (HER2++), Table 49
[5] = NCI-N87 Cells (HER2++), Table 51

Row | Molecule | IC50 μg/ml (BT474 cells) | IC50 (BT474 cells) | IC50 μg/ml (NCI-N87 cells; [4]) | IC50 (NCI-N87 cells; [4]) | IC50 μg/ml (SKBr3 cells; Table 49) | IC50 (SKBr3 cells; Table 49) | further results
1 | CC[C@H](C)[C@@H]([C@@H](CC(=O)N1CCC[C@H]1[C@H](OC)[C@@H](C)C(=O)N[C@@H](Cc1ccccc1)C(=O)O)OC)N(C)C(=O)[C@@H](NC(=O)[C@@H](NC)C(C)C)C(C)C [Free MMAF, monomethyl auristatin F, reference compound] (H-[NMeV]V[Dil][Dolaproine]F-OH) |  |  |  |  |  |  | tumour growth (in words) [1]: grew rapidly
2 | scFv (TCT1067)-Auristatin F-C5, DAR 2.7 (conjugate) scFv: SGSGGSGQVQLVQSGAEVKKPGESLKISCKGSGYSFTSYWIAWVRQMPGKGLEYMGLIYPGDSDTKYSPSFQGQVTISVDKSVSTAYLQWSSLKPSDSAVYFCARHDVGYCTDRTCAAWPEWLGVWGQGTLVTVSSGGGGSGGGGSGGGGSQSVLTQPPSVSAAPGQKVTISCSGSSSNIGNNYVSWYQQLPGTAPKLLIYGHTNRPAGVPDRFSGSKSGTSASLAISGFRSEDEADYYCASWDYTLSGWVFGGGTKLTVLMASMTGGQQMG | 0.00115 µg/mL | 0.0392 nM | 0.00087 µg/mL | 0.0311 nM | 0.00089 µg/mL | 0.0317 nM | 
3 | scFv (TCT1067)-MMAE-PAB-Cit-Val-dPEG9, DAR 9 (conjugate, non-natural residues) scFv: SGSGGSGQVQLVQSGAEVKKPGESLKISCKGSGYSFTSYWIAWVRQMPGKGLEYMGLIYPGDSDTKYSPSFQGQVTISVDKSVSTAYLQWSSLKPSDSAVYFCARHDVGYCTDRTCAAWPEWLGVWGQGTLVTVSSGGGGSGGGGSGGGGSQSVLTQPPSVSAAPGQKVTISCSGSSSNIGNNYVSWYQQLPGTAPKLLIYGHTNRPAGVPDRFSGSKSGTSASLAISGFRSEDEADYYCASWDYTLSGWVFGGGTKLTVLMASMTGGQQMG |  |  |  |  |  |  | IC50 μg/ml (NCI-N87 cells; [5]): 0.195 µg/mL; IC50 (NCI-N87 cells; [5]): 6.95 nM; IC50 μg/ml (U87 cells): 0.1 µg/mL; IC50 (U87 cells; read-out: IC50): 3.57 nM; IC50 μg/ml (SKBr3 cells; Table 51): 0.04476 µg/mL; IC50 (SKBr3 cells; Table 51): 1.59 nM
4 | scFv (TCT1067)-Auristatin F-C5, DAR 11.8 (conjugate) scFv: SGSGGSGQVQLVQSGAEVKKPGESLKISCKGSGYSFTSYWIAWVRQMPGKGLEYMGLIYPGDSDTKYSPSFQGQVTISVDKSVSTAYLQWSSLKPSDSAVYFCARHDVGYCTDRTCAAWPEWLGVWGQGTLVTVSSGGGGSGGGGSGGGGSQSVLTQPPSVSAAPGQKVTISCSGSSSNIGNNYVSWYQQLPGTAPKLLIYGHTNRPAGVPDRFSGSKSGTSASLAISGFRSEDEADYYCASWDYTLSGWVFGGGTKLTVLMASMTGGQQMG | 0.01082 µg/mL | 0.386 nM | 0.0087 µg/mL | 0.31 nM | 0.00844 µg/mL | 0.299 nM | 
5 | scFv (TCT1067)-Auristatin F-C5, DAR 6.2 (conjugate) scFv: SGSGGSGQVQLVQSGAEVKKPGESLKISCKGSGYSFTSYWIAWVRQMPGKGLEYMGLIYPGDSDTKYSPSFQGQVTISVDKSVSTAYLQWSSLKPSDSAVYFCARHDVGYCTDRTCAAWPEWLGVWGQGTLVTVSSGGGGSGGGGSGGGGSQSVLTQPPSVSAAPGQKVTISCSGSSSNIGNNYVSWYQQLPGTAPKLLIYGHTNRPAGVPDRFSGSKSGTSASLAISGFRSEDEADYYCASWDYTLSGWVFGGGTKLTVLMASMTGGQQMG | 0.00112 µg/mL | 0.0399 nM | 0.00036 µg/mL | 0.0129 nM | 0.00101 µg/mL | 0.0361 nM | 
6 | scFv (TCT)-Auristatin F-C5: scFv (TCT) conjugated with Auristatin-F-C5-NHS (compound 88), 30 equivalents, average DAR 8.5 (conjugate) scFv: SGSGGSGQVQLVQSGAEVKKPGESLKISCKGSGYSFTSYWIAWVRQMPGKGLEYMGLIYPGDSDTKYSPSFQGQVTISVDKSVSTAYLQWSSLKPSDSAVYFCARHDVGYCSSSNCAAWPEYFQHWGQGTLVTVSSGGGGSGGGGSGGGGSQSVLTQPPSVSAAPGQKVTISCSGSSSNIGNNYVSWYQQLPGTAPKLLIYGHTNRPAGVPDRFSGSKSGTSASLAISGFRSEDEADYYCAAWDDSLSGWVFGGGTKLTVLMASMTGGQQMG |  |  |  |  |  |  | aggregation by HPLC-SEC (in words) [2]: no aggregation; binding function against immobilised HER2 (in words) (HER2): verified; time stable in the buffer ([3]; after purification and concentration): several weeks; concentration to which purified conjugates were concentrated ([3]; in buffer after SEC purification): ~600 µg/mL
